According to article PMC6744678:

Target: T1, taxol-stabilized microtubules, P02550
T1 chain: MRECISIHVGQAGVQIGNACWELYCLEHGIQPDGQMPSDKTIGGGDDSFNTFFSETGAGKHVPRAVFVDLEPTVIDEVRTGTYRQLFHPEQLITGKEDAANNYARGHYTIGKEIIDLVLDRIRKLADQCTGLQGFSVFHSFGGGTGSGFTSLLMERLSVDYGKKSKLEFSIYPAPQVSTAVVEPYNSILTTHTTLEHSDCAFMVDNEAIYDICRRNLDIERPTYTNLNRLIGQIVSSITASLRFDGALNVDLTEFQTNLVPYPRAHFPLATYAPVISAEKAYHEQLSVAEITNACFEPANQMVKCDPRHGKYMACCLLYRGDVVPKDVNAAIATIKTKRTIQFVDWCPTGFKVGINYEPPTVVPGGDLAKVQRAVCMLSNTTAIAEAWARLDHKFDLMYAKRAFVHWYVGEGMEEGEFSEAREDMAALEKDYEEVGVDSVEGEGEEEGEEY
Assay: GST pull-down of microtubules, quantified tubulin band intensity
Conditions: chain shown with the change; BRB80 buffer at room temperature; n=3; parent: est. 27; read off a plot

response (relative intensity (GST = 1.0)): 25
B1: GST-tagged full-length (1-314 aa) CCDC74B M67N; L68N; A69N; L71N; L230N; L233N; L234N (protein)
chain: MSGAGVAAGTRPPSSPTPGSRRRRQRPSVGVQSLRPQSPQLRQSDPQKRNLDLEKSLQFLQQQHSENNNKNHEEIEHLKRENKDLRYKLIMNQTSQKKDSLSTSSFQSVKSISNSGKARPQPGSFNKQDSKADVPQKADLEEEPLLHNSKLDKVPGVQGQARKEKAEASNAGAACMGNSQHQGRQMGAAAHPPMILPLPLRKPTTLRQCEVLIRELWNTNLLQTQELQHNKSNNEGSQRPQAVPEEASFPRDQEATHFPKVSTKSLSKKCLLLSPPVAERAILPALKQTPKNNFAERQKRLQAMQKRRLHRSVL
